In patent US20240158459A1 (KYVERNA THERAPEUTICS, published 2024):
Where a chain is given by its changes, count along the chain named. In names and notes the source's numbering stands.

T1: biotinylated-MADCAM-1 antigen (human, UniProt Q13477 19-317, limits assumed, biotinylated (site not stated))
T1 construct: The BLI paragraph says only 'biotinylated-MADCAM-1 antigen'; also called mucosal addressin cell adhesion molecule 1
T1 sequence (looked up): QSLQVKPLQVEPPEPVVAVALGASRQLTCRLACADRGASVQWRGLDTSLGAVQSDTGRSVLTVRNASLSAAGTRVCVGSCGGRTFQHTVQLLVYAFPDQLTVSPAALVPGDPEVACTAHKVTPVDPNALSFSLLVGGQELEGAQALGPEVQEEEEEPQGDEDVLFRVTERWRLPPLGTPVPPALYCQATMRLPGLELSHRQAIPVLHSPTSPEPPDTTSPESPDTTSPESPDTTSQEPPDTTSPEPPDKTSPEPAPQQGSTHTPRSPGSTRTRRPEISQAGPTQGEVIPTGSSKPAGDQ

B1: MAdCAM1 scFv 10.7 (scFv)
scFv: EVQLLESGGGLVQPGGSLRLSCAASGIDFSGYHYICWVRQAPGKGLEWVSCIYTVSSGIWYATWAKGRFTISRDNSKNTLYLQMNSLRAEDTAVYYCARDDADVSGYWFDLWGQGTLVTVSSGGGGSGGGGSGGGGSDIQMTQSPSSLSASVGDRVTITCQASQSISNLLAWYQQKPGKAPKLLIYKASTLASGVPSRFSGSGSGTDFTFTISSLQPEDIATYYCQQGITNNGIDHGFGGGTKVEIK
notes: Humanized rabbit-derived scFv, VH-(G4S)3-VL
B2: MAdCAM1 scFv 10.1 (scFv)
scFv: B1 scFv with E1Q, L5V, L11V, G16R, S50A, K77T, Y81F
notes: as for B1
B3: MAdCAM1 scFv 10.8 (scFv)
scFv: B1 scFv with D138A, M141L, F210L, I220F
notes: as for B1
B4: MAdCAM1 scFv 10.3 (scFv)
scFv: B1 scFv with L5V, Q13K, S76A, T79S
notes: as for B1
B5: MAdCAM1 scFv 10.2 (scFv)
scFv: QVQLVESGGGVVQPGRSLRLSCAASGIDFSGYHYICWVRQAPGKGLEWVACIYTVSSGIWYATWAKGRFTISRDNSTNTLFLQMNSLRAEDTAVYYCARDDADVSGYWFDLWGQGTLVTVSSGGGGSGGGGSGGGGSAIQLTQSPSSLSASVGDRVTITCQASQSISNLLAWYQQKPGKAPKLLIYKASTLASGVPSRFSGSGSGTDFTLTISSLQPEDFATYYCQQGITNNGIDHGFGGGTKVEIK
notes: as for B1
B6: MAdCAM1 scFv 2.1 (scFv)
scFv: QVQLLESGGGLVKPGGSLRLSCAASGFSFSSGYYMCWIRQAPGKGLEWVSCIYADSSYTYYASWAKGRFTISRDNAKNSLYLQMNSLRAEDTAVYYCARSNGDYFYGMDLWGQGTLVTVSSGGGGSGGGGSGGGGSDIQMTQSPSSLSASVGDRVTITCQASQSINSWLSWYQQKPGKAPKLLIYRASTLASGVPSRFSGSGSGTDFTFTISSLQPEDIATYYCQSNYYSTSTAFGGGTKVEIK
notes: as for B1
B7: MAdCAM1 scFv 2.2 (scFv)
scFv: B6 scFv with D137A, F209L, I219F
notes: as for B1

Target: T1, biotinylated-MADCAM-1 antigen
Assay: BLI, biotinylated MADCAM-1 on streptavidin biosensors, scFv titrated, global 1:1 fit
Method: Binding affinity (KD) of MADCAM-1 scFv antibodies from Table 2 was measured using biolayer interferometry (See also FIG. 6). Streptavidin biosensors were loaded for 5 seconds with 10 Tg/mL biotinylated-MADCAM-1 antigen followed by acquisition of the baseline signal in phosphate buffer saline supplemented with bovine serum albumin and sodium azide. For the association step loaded probes were incubated for 250 seconds with a titration of anti-MADCAM-1 scFv antibodies at concentrations generally between 0 nM and 2 TM. This was followed by a dissociation step in buffer lacking anti-MADCAM-1 scFv for 250 seconds. Experimental data was normalized to a reference probe and high-frequency noise was removed by Savitzky-Golay filtering. On and off-rate constants were determined using a globally fitted 1:1 binding model.

Binder | Kd [nM] | koff [s⁻¹] | kon [M⁻¹ s⁻¹]
B1 | 45.4 | 0.00108 | 23800
B2 | 102 | 0.00125 | 12200
B3 | 928 | 0.00259 | 2790
B4 | 98.3 | 0.00114 | 11600
B5 | 1260 | 0.00646 | 5130
B6 | 85 | 0.00602 | 70800
B7 | 329 | 0.0167 | 50800
